Reference: article PMC3135353 (The Journal of Experimental Medicine, 2011)
Changes are numbered by the printed parent chain. Names may count otherwise.

T1: B7-H6, extracellular portion (residues Asp25-Ser262) (human, UniProt Q68D85 25-262, N-linked glycans seen at Asn43, Asn57 and Asn208)
T1 sequence (looked up): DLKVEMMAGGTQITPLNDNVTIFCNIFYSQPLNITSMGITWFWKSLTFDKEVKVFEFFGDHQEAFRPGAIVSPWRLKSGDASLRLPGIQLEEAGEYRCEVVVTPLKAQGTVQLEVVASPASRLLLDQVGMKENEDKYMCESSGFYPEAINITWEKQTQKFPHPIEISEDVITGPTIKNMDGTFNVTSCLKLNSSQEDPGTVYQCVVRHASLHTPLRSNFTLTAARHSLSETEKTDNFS

B1: NKp30 F85A/L86A mutant, extracellular portion (domain or fragment, human, UniProt O14931 19-135, looked up)
chain: LWVSQPPEIRTLEGSSAFLPCSFNASQGRLAIGSVTWFRDEVVPGKEVRNGTPEFRGRLAPLASSRAAHDHQAELHIRDVRGHDASIYVCRVEVLGLGVGTGNGTRLVVEKEHPQLG
B2: NKp30 I50A/S52A mutant, extracellular portion (domain or fragment, human, UniProt O14931 19-135, looked up)
chain: B1 chain with I32A, S34A, A67F, A68L
B3: NKp30 S52R mutant, extracellular portion (domain or fragment, human, UniProt O14931 19-135, looked up)
chain: B1 chain with S34R, A67F, A68L

Molecular target: T1, B7-H6, extracellular portion (residues …)
Test: SPR

Row | Binder | Kd [µM]
1 | B1 | 53
2 | B2 | 14
3 | B3 | 150
